# B1: Mycoplasma arginini (IFO 14476) arginine deiminase (EC 3.5.3.6), present invention, amino acid sequence of FIG. 4 (Mycoplasmopsis arginini) (protein)
# chain: MSVFDSKFKGIHVYSEIGELESVLVHEPGREIDYITPARLDELLFSAILESHDARKEHKQFVAELKANDINVVELIDLVAETYDLASQEAKDKLIEEFLEDSEPVLSEEHKVVVRNFLKAKKTSRELVEIMMAGITKYDLGIEADHELIVDPMPNLYFTRDPFASVGNGVTIHYMRYKVRQRETLFSRFVFSNHPKLINTPWYYDPSLKLSIEGGDVFIYNNDTLVVGVSERTDLQTVTLLAKNIVANKECEFKRIVAINVPKWTNLMHLDTWLTMLDKDKFLYSPIANDVFKFWDYDLVNGGAEPQPVENGLPLEGLLQSIINKKPVLIPIAGEGASQMEIERETHFDGTNYLAIRPGVVIGYSRNEKTNAALEAAGIKVLPFHGNQLSLGMGNARCMSMPLSRKDVKW
# notes: Arginine deiminase was purified from the M. arginini cell extract; endogenous in cells; host or cells: Mycoplasma arginini IFO 14476 cells (strain from the Institute for Fermentation, Osaka); enzyme purified in house by three chromatography steps
# Substrate: N=C(N)NCCC[C@H](N)C(=O)O
# Assay: Km determination by Lineweaver-Burk plot analysis, citrulline formation assay
# Format: biochemical, Mycoplasma arginini
# Conditions: other: purified enzyme from M. arginini, substrate L-arginine, pH 7.0
# Protocol: The activity of arginine deiminase can be determined by causing it to produce citrulline using the method reported by Fenske et. al. [J. Bacteriol. 126, 501-510 (1976)], and by measuring the amount of the yields using the method given by Archibald [J. Biol. Chem. 156, 121-142 (1944)].
# Specifically, 20 μl of arginine deiminase solution is added to 1.0 ml of 10 mM arginine [dissolved in 0.1M phosphate buffer of pH 7.0], then an enzyme reaction is allowed to take place at 37° C. for 10 minutes, and the reaction is terminated by adding 1 ml of mixed acid solution (H2 SO4 :H3 PO4 =1:3). Then, the resultant reactive solution is added with 25 μl of 3% aqueous diacetylmonooxim solution, heated at 100° C. for 20 minutes under a light-shielded condition, left to cool under a room temperature for 30 minutes, and then the amount of the citrulline yield is measured quantitatively by measuring the absorbence at 490 nm. The activity of arginine deiminase producing 1 μmol of citrulline in one minute is defined as 1 unit.
# v) Km value and Vmax value
# By the Lineweaver-Burk plot analysis Km and Vmax were determined as 0.2 mM and 50 U/mg, respectively.
protein,measurement,value
B1,Km,200 µM
